How the values were obtained:
[1] = target: XPB (core TFIIH);XPD (core TFIIH);p62 (core TFIIH);p52 (core TFIIH);p44 (core TFIIH);p34 (core TFIIH);TTDA/p8 … (Homo sapiens;Homo sapiens;Homo …, UniProt P19447;P18074;P32780;Q92759;Q13888;Q13889;Q6ZYL4;P23025 …, |||||||); experiment: cryo-EM structure (3.6 A); 2 mM Mg2+ at assembly; XPG E791A added (3:1 excess over TFIIH) but not visible in the map; glutaraldehyde-fixed gradient; DNA register shift not excluded; Complex assembly: 150 mM KCl, 20 mM KOH:HEPES pH 7.0, 10% glycerol, 2 mM MgCl2, 5 mM beta-mercaptoethanol; sucrose gradient pH 7.5, 4 C, 0.1% glutaraldehyde; helicase/triplex assays (turnover) left out; conditions: copies: 1;1;1;1;1;1;1;1; fork, 29 bp duplex 1:21-49 with 2:1-29; unpaired arms 20 nt 5' (strand 1: 1-20) and 20 nt 3' (strand 2: 30-49)
[2] = target: human TFIIH core module (core TFIIH), seven subunits: XPB, XPD, p62, p52, p44, p34, TTDA (human, UniProt P19447 1-782; P18074 1-760; P32780 1-548; Q92759 1-462; Q13888 1-395; Q13889 …); experiment: cell-based or functional assay

XPD 5′–3′ helicase activity of core TFIIH (rate of DNA unwinding, stopped-flow kinetics), with XPG against without [2] | Binder | binding result [1]
 | cryo-EM DNA scaffold (forked) (mixed) DNA 1: CAAAGTCACGACCTAGACACTGCGAGCTCGAATTCACTGGAGTGACCTC DNA 2: GAGGTCACTCCAGTGAATTCGAGCTCGCAACAATGAGCACATACCTAGT | binds
20 fold | XPG (natural protein, human, UniProt P28715 1-1186, looked up) MGVQGLWKLLECSGRQVSPEALEGKILAVDISIWLNQALKGVRDRHGNSIENPHLLTLFHRLCKLLFFRIRPIFVFDGDAPLLKKQTLVKRRQRKDLASSDSRKTTEKLLKTFLKRQAIKTAFRSKRDEALPSLTQVRRENDLYVLPPLQEEEKHSSEEEDEKEWQERMNQKQALQEEFFHNPQAIDIESEDFSSLPPEVKHEILTDMKEFTKRRRTLFEAMPEESDDFSQYQLKGLLKKNYLNQHIEHVQKEMNQQHSGHIRRQYEDEGGFLKEVESRRVVSEDTSHYILIKGIQAKTVAEVDSESLPSSSKMHGMSFDVKSSPCEKLKTEKEPDATPPSPRTLLAMQAALLGSSSEEELESENRRQARGRNAPAAVDEGSISPRTLSAIKRALDDDEDVKVCAGDDVQTGGPGAEEMRINSSTENSDEGLKVRDGKGIPFTATLASSSVNSAEEHVASTNEGREPTDSVPKEQMSLVHVGTEAFPISDESMIKDRKDRLPLESAVVRHSDAPGLPNGRELTPASPTCTNSVSKNETHAEVLEQQNELCPYESKFDSSLLSSDDETKCKPNSASEVIGPVSLQETSSIVSVPSEAVDNVENVVSFNAKEHENFLETIQEQQTTESAGQDLISIPKAVEPMEIDSEESESDGSFIEVQSVISDEELQAEFPETSKPPSEQGEEELVGTREGEAPAESESLLRDNSERDDVDGEPQEAEKDAEDSLHEWQDINLEELETLESNLLAQQNSLKAQKQQQERIAATVTGQMFLESQELLRLFGIPYIQAPMEAEAQCAILDLTDQTSGTITDDSDIWLFGARHVYRNFFNKNKFVEYYQYVDFHNQLGLDRNKLINLAYLLGSDYTEGIPTVGCVTAMEILNEFPGHGLEPLLKFSEWWHEAQKNPKIRPNPHDTKVKKKLRTLQLTPGFPNPAVAEAYLKPVVDDSKGSFLWGKPDLDKIREFCQRYFGWNRTKTDESLFPVLKQLDAQQTQLRIDSFFRLAQQEKEDAKRIKSQRLNRAVTCMLRKEKEAAASEIEAVSVAMEKEFELLDKAKGKTQKRGITNTLEESSSLKRKRLSDSKGKNTCGGFLGETCLSESSDGSSSEDAESSSLMNVQRRTAAKEPKTSASDSQNSVKEAPVKNGGATTSSSSDSDDDGGKEKMVLVTARSVFGKKRRKLRRARGRKRKT | 

— PMC6599211, “Structural basis of TFIIH activation for nucleotide excision repair” (Nature Communications, 2019)
